Measured values from the Human Domainome abundance scans (Beltran et al. 2025).

B1: Formin-binding protein 4, residues 200 to 261; numbered along this chain, Q8N3X1 (parent)
chain: SGWQYDTQCSLAGVGIEMGDWQEVWDENTGCYYYWNTQTNEVTWELPQYLATQVQGLQHYQP
B2: Myocardin, residues 363 to 406; numbered along this chain, Q8IZQ8 (parent)
chain: KPGPLPPNLDDLKVSELRQQLRIRGLPVSGTKTALMDRLRPFQD

Variants of: B1
Assay: abundance fitness (aPCA) (normalised: wild type 0, dead -1); higher = more abundant; growth selection in yeast, the domain comes from the species named
Settings: Homo sapiens

Abundance fitness, by site and new letter:
Y5: H -0.052; I -0.436; C -0.592; E -0.218; A -0.416; D -0.525; F -0.115; G -0.36
G2: I 0.273; Q 0.052; L -0.022; N 0.405; W -0.25; T 0.328; H 0.607; F 0.071; M 0.19; D 0.196; C -0.276; S 0.222; R -0.097; Y 0.422
S1: C -0.068; I -0.222; E 0.066; V -0.052; Q -0.673; G 0.116; D 0.085; L -0.501; F -0.457; Y -0.631; P -0.709; K 0.293; H -0.921; N -0.093; M 0.503; W -0.075; T 0.046; A 0.057; R -0.236
Q4: C -0.051; L -0.385; P -0.635; F 0.146; K 0.358; D 0.182; G -0.207; V 0.147; H 0.126; Y -0.176; A -0.447; N 0.318; M 0.165; W -0.241; S -0.023; T 0.288; E -0.037; R 0.106; I 0.232
W3: D -0.019; R -0.202; M 0.046; L -0.003; V 0.054; Q 0.157; H -0.296; K 0.138; P -0.158; F 0.156; C -0.097; I -0.217; A 0.002; E -0.376; S 0.127; Y 0.012; T 0.168; G -0.275

Variants of: B2
Assay: as above
Settings: Homo sapiens

Abundance fitness: each site, then its substitutions
P41: T -0.351; V -0.11; W -0.161; H -0.14; I -0.001; F -0.27; Y -0.455; R -0.256; E 0.087; M -0.231; A 0.037; K -0.305; L -0.132; G -0.084; C -0.151; D -0.325; S 0.064
F42: N -0.736; K -0.09; A 0.067; P -0.02; M -0.242; S 0.03; Q -0.06; L 0.111; V -0.211; Y -0.102; H 0.139; W -0.124; G -0.278; D -0.061; C -0.138; E -0.148; R -0.12
D44: F -0.325; K 0.195; A -0.086; L -0.494; N -0.236; C -0.297; G 0; E -0.031; Q -0.206; R -0.03; W -0.218; Y -0.379; V 0.038; S -0.313
L39: I -0.474; K -0.595; Y -0.505; Q -0.465; P -0.373; R -0.776; V -0.594; T -0.625; W -0.77; S -0.601; M -0.409
R40: L -0.284; W -0.731; C -0.499; N -0.698; V -0.376; I -0.205; M -0.25; P -0.346; E -0.152; S -0.107; A 0.092; K 0.194; Q -0.042; D -0.614; T -0.12; G -0.294
Q43: A -0.042; F 0.028; G -0.152; I -0.109; S -0.061; T 0.1; N -0.213; M -0.031; P -0.625; W -0.106; R -0.232; C -0.005; H -0.376; K -0.503
